Source: US20070298997A1, “Compounds useful in treating diabetic microvascular complications and age-related macular degeneration” (priority 2003, published 2007)
Like-named read-outs stand apart in the source and are kept apart here.

Columns and labels:
[1] = system: retinal neovascularization; type: in vivo, Brown Norway rats; conditions: for pre-retinal vascular cells: P<0.01
Description: Retinal neovascularization was induced in Brown Norway rats by exposure of newborn rats to hyperoxia as described previously (Gao et al., 2001). Kallistatin was injected intravitreally at P12, and the control eyes received the same volume of PBS. Rats were kept under normoxia for another 5 days, and retinal neovascularization was examined by fluorescein angiography (P17). The control eyes (PBS-injected) developed typical retinal neo-vascularization, including neovascular tufts, microaneurysms, enlarged non-perfusion regions and vascular leakage (FIG. 5a).
Induction of retinal neovascularization and intravitreal injection of kallistatin: Retinal neovascularization was induced as described by Smith et al. (Smith et al., 1994) with some modifications. Briefly, newborn pigmented Brown Norway rats at postnatal day 7 (P7) were exposed to hyperoxia (75% O2) for 5 days and then normoxia. Animals were anesthetized, and kallistatin was injected into the vitreous of the right eye through the pars plana using a glass capillary. The left eye received the same volume of PBS as the control. After injection, the animals were kept in normoxia for another 5 days for further analyses.
Retinal angiography with high molecular weight fluorescein and quantification of neovascularization: Retinal angiography was as described by Smith et al. (Smith et al., 1994). Briefly, rats were anesthetized and perfused with fluorescein via intra-ventricle injection of 50 mg/ml of high molecular weight (2×10^6) fluorescein isothiocyanate-dextran (Sigma, St. Louis, Mo.). The animals were immediately sacrificed, and the eyes were enucleated and fixed in 4% paraformaldehyde for 10 min. The retina was dissected free of the lens and vitreous and incubated in 4% paraformaldehyde for 3 h. The retina was cut and flat-mounted on a gelatin-coated slide. The vasculature was then examined under a fluorescent microscope (Axioplan2 Imaging, Zeiss).
Retinal neovascularization was quantified by counting pre-retinal vascular cells as previously described (Zhang et al., 2001). The average number of pre-retinal vascular nuclei was compared to the PBS control group by Student's t test.

PEDF = PEDF secretion in HMC under high glucose (ELISA); type: cell-based, human; conditions: 30 mM glucose, 3 days
Description: FIG. 13 illustrates prevention of the high glucose-induced decrease of PEDF in HMC by kallistatin. HMC were treated with high glucose (30 mM) in the presence of different concentrations of kallistatin for 3 days. Control cells were treated with 5 mM glucose and 5 mM glucose+25 mM mannitol as an osmolarity control. PEDF secretion into the medium was measured by ELISA (mean±SD, n=3).
Kallistatin up-regulates endogenous anti-inflammatory factors in the kidney. Pigment epithelium-derived factor (PEDF) is an anti-angiogenic factor. Recently, the inventor has shown that PEDF also has anti-inflammatory activities and has a protective effect against DN (see U.S. Ser. No. 10/963,115, filed Oct. 12, 2004, the contents of which are hereby expressly incorporated herein by reference). Decreased PEDF levels in diabetic kidney may contribute to the development of DN. The effect of kallistatin on PEDF expression has been determined in kidney cells. HMC were treated with high glucose (30 mM glucose) with different concentrations of kallistatin for 3 days. The PEDF levels in the cultured medium were measured by ELISA specific for PEDF.

VEGF = VEGF in the conditioned medium of RCEC by ELISA; type: cell-based, bovine; conditions: RCEC under hypoxia, 24 h, 5-80 nM
Description: FIG. 9 illustrates down-regulation of VEGF expression by kallistatin. As increased VEGF levels in the retina and vitreous play a key role in the development of retinal neovascularization, the effect of kallistatin on the expression of VEGF in cultured RCEC was determined. VEGF secreted into the conditioned medium was measured by VEGF ELISA and normalized by total protein concentration in the medium.
Measurement of VEGF in the conditioned medium of RCEC by ELISA: RCEC were seeded in T75 flasks in endothelial cell growth medium and cultured in a CO2 incubator to reach 60-70% confluency. The cells were washed 3 times with PBS and the growth medium replaced by a serum-free medium containing bFGF (GIBCO-BRL, Gaithersburg, Md.). Kallistatin was added to the medium to various concentrations and incubated with the cells for 24 h under normoxia or hypoxia (in a chamber that was perfused with a mixture of 95% N2+5% CO2). The conditioned medium was harvested for VEGF ELISA and the cells were used for Western blot analysis. The conditioned medium was centrifuged and the protein concentration in the supernatant was measured with BioRad protein assay. VEGF concentration was measured using a VEGF ELISA kit (R& D systems, Minneapolis, Minn.) and normalized by total protein concentration in the medium.

VEGF binding to RCEC = assay: VEGF binding assay (125I-VEGF); design: species or system bovine; conditions: 1 h, 0.5, 5 and 50 μg competitor (VEGF:kallistatin 1:5, 1:50, 1:500)
Description: FIG. 8 illustrates inhibition of VEGF binding to RCEC by kallistatin. […] To determine the competition between kallistatin and VEGF in RCEC binding, ^125I-VEGF was added to RCEC together with 0.5, 5 and 50 μg of unlabeled kallistatin to result in VEGF:kallistatin molar ratios of 1:5, 1:50 and 1:500, respectively.
VEGF binding assay: VEGF (PeproTech, Inc., Rocky Hill, N.J.) was labeled with 125I using the Chloromine T ^125I Labeling Kit (ICN Pharmaceuticals, Inc. Costa Mesa, Calif.) following a protocol recommended by the manufacturer. For the binding assay, RCEC were seeded in 12-well plates and cultured until 80% confluency was reached. The culture medium was replaced with serum-free medium. ^125I-VEGF was added to the medium, 2.5×10^5 CPM/well with and without different concentrations of kallistatin or recombinant plasminogen kringle 5 (K5) and incubated with the cells for 1 h. The medium was removed and cells washed three times with PBS. The cells were then lysed by the addition of 0.35 ml 10% SDS. The cell lysates were collected, and the 125I-VEGF bound to RCEC was quantified by a gamma counter.

RCEC = assay: [3H] thymidine incorporation assay; type: cell-based, bovine; conditions: 5 to 160 nM
Description: [^3H] thymidine incorporation assay: RCEC were seeded in 24-well plates in 1:1 DMEM +F-12 nutrient mixture plus 10% FBS and cultured in a CO2 incubator to reach 60-70% confluency. The cells were washed 3 times with PBS and the growth medium replaced by a medium containing 1% FBS and different concentrations of kallistatin. After 24 h culture, [^3H] thymidine was added to the medium (2 μCi/well) and incubated with the cells at 37° C. for 12 h. Free [^3H] thymidine was removed by 3 washes with PBS, and a solution of 6% TCA was added to the wells. The TCA solution was removed, and the wells were washed once with PBS. The remaining material was solubilized with 200 μl of 1 M NaOH (Smith et al., 1999). Incorporated [^3H] thymidine was measured with a microplate scintillation counter (Packard Instrument Company, Meriden, Conn.).

B1: kallistatin: Recombinant His-tagged rat kallistatin (serpin, SEQ ID NO:1) expressed in E. coli and affinity-purified (protein, listed as Homo sapiens)
chain: DGILGRDTLPHEDQGKGRQLHSLTLASINTDFTLSLYKKLALRNPDKNVVFSPLSISAALAILSLGAKDSTMEEILEVLKFNLTEITEEEIHHQGFGHLLQRLSQPEDQAEINTGSALFIDKEQPILSEFQEKTRALYQAEAFVADFKQCNEAKKFINDYVSNQTQGKIAELFSELDERTSMVLVNYLLFKGKWKVPFNPNDTFESEFYLDEKRSVKVPMMKIKDLTTPYIRDEELSCSVLELKYTGNASALFILPDQGKMQQVESSLQPETLKKWKDSLRPRIISELRMPKFSISTDYNLEEVLPELGIRKIFSQQADLSRITGTKNLHVSQVVHKAVLDVDETGTEGAAATAVTAALKSLPQTIPPLNFNRPFMLVITDNNGQSVFFMGKVTNPM
modifications: His tag
pre-retinal vascular cells ([1]; OIR rats, 12.5 μg per eye intravitreal): significantly decreased pre-retinal vascular cells
pre-retinal vascular cells ([1]; OIR rats, 25 μg per eye intravitreal): significantly decreased pre-retinal vascular cells
retinal vasculature by fluorescein angiography ([1]; OIR rats, intravitreal injection at P12, examined P17): apparent improvement in retinal vasculature
retinal vasculature by fluorescein angiography, normal rats ([1]; rat, in vivo): did not result in any apparent difference in retinal vasculature
PEDF levels in the cultured medium (PEDF): prevents the decrease of PEDF under the high glucose insult
PEDF levels in the cultured medium (PEDF; listed as Kallistatin): reversed the changes of PEDF under high glucose conditions
VEGF secreted into the conditioned medium (VEGF): reduced VEGF in the medium
VEGF bound to RCEC (VEGF binding to RCEC): decreased in a kallistatin concentration-dependent manner
thymidine incorporation (cell proliferation rate) (RCEC): inhibited thymidine incorporation in RCEC in a concentration-dependent manner
